Assay results: the Human Domainome abundance scans (Beltran et al. 2025)

B1: Double-stranded RNA-specific adenosine deaminase, residues 296 to 358; numbered along this chain, P55265 (parent)
chain: MAEIKEKICDYLFNVSDSSALNLAKNIGLTKARDINAVLIDMERQGDVYRQGTTPPIWHLTDK

Variants of: B1
Test: abundance fitness (aPCA) (normalised: wild type 0, dead -1); higher = more abundant; growth selection in yeast, the domain comes from the species named
Details: Homo sapiens

Abundance fitness, by site and new letter:
P55: V -0.298; L -0.594; T -0.25; Q -0.486; I -0.547; F -0.396; W -0.721; Y -0.491; M -0.632; G -0.434; N -0.006; C -0.344; H -0.435; E -0.043; R -0.698; A -0.243; D 0.06; K -0.49; S -0.288
D41: S -0.501; Y -1.06; V -1.14; W -1.12; T -0.445
G46: E -0.66; F -1.05; N -0.827; Q -0.652; A -0.844; M -0.498; I -1.03; C -0.998; W -1.15; R -0.902; P -0.778; S -0.618; K -0.448; T -0.856; L -0.974; Y -1.06; V -0.613
D47: R 0.046; K 0.024; G -0.881; L 0.297; F -0.177; C -0.096; A -0.117; S -0.114; W -0.234; N -0.322; V 0.288; T 0.205; Y -0.068; M 0.182; H -0.123; Q 0.122; E 0.35
Q45: I -0.495; R -0.33; G -0.778; V -0.075; F -0.729; T -0.097; Y -0.637; C -0.053; N 0.033; H -0.024; E 0.022; P -0.912; A 0.145; L -0.524; D 0.17; S 0.022; K -0.492
W58: R -0.242; A -0.426; T -0.251; H -0.278; F -0.234; I -0.366; V -0.488; P -0.409; D -0.434; Y -0.095; M -0.362; Q -0.152; S -0.254; C -0.384; K -0.303; N -0.296
G52: W -0.518; D -0.105; F -0.901; R -0.489; H -0.234; C -0.525; T -0.659; V -0.638; S -0.387; N -0.072; K -0.367; Y -0.765; A -0.342; M -0.812; E -0.12; I -0.779; L -0.764
R44: T -0.043; C -0.6; A 0.079; W -0.705; Q 0.037; L -0.373; S -0.173; G -0.334; M -0.27; H -0.274; N -0.056; K 0.067; D -0.175; E -0.126; I -0.26; Y -0.614
T61: M -0.182; D -0.32; S -0.052; V -0.193; N -0.124; I -0.818; Q -0.52; W -0.808; R -0.282; H -0.344; E -0.483; F -0.737; P -0.411
T53: A -0.033; R 0.238; I -0.744
I57: M -0.008; L -0.281; Q -0.181; N -0.352; F -0.637; R -0.125; P -0.481; V -0.108; W -0.476; G -0.449; Y -0.846; A -0.316; E -0.257; T -0.035; H -0.185; C -0.567; K -0.149; S -0.265; D -0.191
Q51: P -0.861; I 0.088; W -0.407; G -0.215; K 0.053; D 0.22; C 0.051; F -0.658; N -0.051; T 0.494; V 0.208; S 0.401; A -0.162; H -0.094; E 0.176
P56: K -0.539; D -0.447; Y -0.693; T -0.013; F -1.13; M -1.28; S -0.57; V -0.099; L -0.656; W -0.818; I -0.263; Q -0.541; R -0.686; C -0.511
M42: P -0.502; T -0.636; V -0.774; R -0.629; G -0.485; N -0.412; Q -0.335; F -0.965; A -0.479; K -0.303; C -0.742; D -0.551; L -0.369; W -0.795; E -0.22; I -1.03; S -0.613
H59: I -0.525; M -0.259; D -0.375; P -0.524; L -0.613; R 0.281; N -0.224; Q -0.175; W -0.972; G 0.215; V -0.282; E -0.301; Y -0.466; F -0.329; A 0.288; S 0.263; C 0.095; K 0.294; T -0.052
D62: Q 0.017; R -0.167; M -0.409; K 0.002; E 0.072; C -0.185; P -0.333; I -0.708; S -0.083; A 0.053; G -0.19; N -0.432; L -0.437
T54: N 0.306; K -0.024; E 0.093; F -0.429; A -0.04; G -0.32; H 0.045; S 0.127; L -0.448; P -0.722; R -0.18; W -0.513; C -0.148; V -0.204; Y -0.386
Y49: C 0.078; G -0.076; H -0.074; E 0.259; V 0.177; T 0.135; R 0.007; I 0.053; F -0.167; N -0.34; W -0.044; P -0.519; S 0.111; M 0.003; Q 0.051; K 0.161; L -0.27
L60: T -0.551; A -0.196; W -0.793; Y -0.577; G -0.436; C -0.662; Q -0.764; R -0.45; I -0.628; V -0.516; M -0.295; D -0.356; K -0.494; S -0.437; N -0.425; F -0.598; E -0.226
V48: F -0.927; I -0.139; H -0.574; K -0.701; P -0.507; A -0.284; W -0.692; S -0.585; C -0.389; E -0.23; Y -0.862; D -0.335; Q -0.743; T -0.563; N -0.286
R50: A -0.238; M -0.555; F -0.601; V -0.381; W -0.722; L -0.684; D -0.761; T -0.406; G -0.453; N -0.379; H -0.274; S -0.019; Q 0.036; I -0.798; Y -0.985; K 0.12; E -0.392
E43: Q -0.447; T -1.07; A -0.66; F -0.748; S -0.841; Y -0.725; H -0.798; M -0.848; P -0.729; V -0.873; L -0.93; I -1.13; D -0.665; N -0.697; R -0.927; G -0.508
